Where a chain is given by its changes, count along the chain named. Numbers in names are those of the source.
Columns and labels:
Assay in all cases: SPR (ProteOn), CD73 variant immobilized; 2:1 fit
HDX_E2 CD73 chimera = target: T1, HDX_E2 CD73 chimera (human; chicken, UniProt P21589 27-553)
T1 construct: also called KO_182-187
T1 chain: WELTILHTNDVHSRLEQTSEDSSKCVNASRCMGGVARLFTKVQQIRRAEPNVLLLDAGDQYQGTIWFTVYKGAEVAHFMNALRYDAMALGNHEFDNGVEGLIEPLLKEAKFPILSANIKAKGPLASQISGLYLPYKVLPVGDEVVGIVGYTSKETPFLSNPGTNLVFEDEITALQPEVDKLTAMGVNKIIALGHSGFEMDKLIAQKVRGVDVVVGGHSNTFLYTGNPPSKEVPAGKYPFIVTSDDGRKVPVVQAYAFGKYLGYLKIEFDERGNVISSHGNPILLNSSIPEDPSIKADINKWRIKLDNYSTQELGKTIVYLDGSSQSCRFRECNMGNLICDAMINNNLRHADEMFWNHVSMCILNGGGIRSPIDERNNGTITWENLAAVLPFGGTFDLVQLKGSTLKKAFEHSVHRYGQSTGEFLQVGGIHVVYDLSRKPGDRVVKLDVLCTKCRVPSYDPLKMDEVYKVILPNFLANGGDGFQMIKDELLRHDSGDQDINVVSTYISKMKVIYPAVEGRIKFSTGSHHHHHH
Protocol: (§1) Binding of MEDI9447 to wild-type and mutant CD73 proteins was measured by surface plasmon resonance (SPR) using a ProteOn instrument (BioRad). CD73 crude cell supernatant protein samples were diluted to 3 µg/ml in PBS, 0.005% Tween-20, pH 7.4 (BioRad) and immobilized to ~400 RU on a HTG tris-NTA sensor chip (BioRad) pre-activated with 10 mM NiSO₄, 10 mM MES, pH 6.0 (BioRad). An equivalently diluted crude cell supernatant sample from non-transfected cells was included as a reference channel control. Sensorgrams were recorded by flowing two-fold dilutions of MEDI9447 prepared in PBS, 0.005% Tween-20, pH 7.4, ranging from 5 nM to 0.31 nM. […] Antibody binding was measured at a flow rate of 100 µL/min with a 3 min association phase and 20 min dissociation phase. The sensor chip surface was regenerated between each run by an 800 s injection of 300 mM EDTA, pH 8.5 (BioRad) at a flow rate of 30 µL/min. Binding kinetics were analyzed using the ProteOn data analysis software. Double referencing was performed and, unless noted otherwise, a 1:1 Langmuir binding model was utilized to fit the data. Some CD73 variants containing mutations within the amino acid region 171-188 fit poorly to a 1:1 model (i.e., Chi² values >10% of Rmax). Where noted, these variants were fit with a heterogenous antigen (2:1) model. […] Due to the assay format (antigen immobilized) and the dimeric state of CD73, KD values may be exaggerated due to avidity effects. However, it is not anticipated that this impacts ranking of MEDI9447 binding to the different CD73 variants.

HDX_E1+E2 CD73 chimera = target: T2, HDX_E1+E2 CD73 chimera (human; chicken, UniProt P21589 27-553)
T2 chain: T1 chain with Y132V, L133H, V137I, P139H, V140I, G141D, D142S
Protocol: as §1

[1] = target: T3, Human CD73 N185G, His-tagged (human, UniProt P21589 27-549)
T3 sequence: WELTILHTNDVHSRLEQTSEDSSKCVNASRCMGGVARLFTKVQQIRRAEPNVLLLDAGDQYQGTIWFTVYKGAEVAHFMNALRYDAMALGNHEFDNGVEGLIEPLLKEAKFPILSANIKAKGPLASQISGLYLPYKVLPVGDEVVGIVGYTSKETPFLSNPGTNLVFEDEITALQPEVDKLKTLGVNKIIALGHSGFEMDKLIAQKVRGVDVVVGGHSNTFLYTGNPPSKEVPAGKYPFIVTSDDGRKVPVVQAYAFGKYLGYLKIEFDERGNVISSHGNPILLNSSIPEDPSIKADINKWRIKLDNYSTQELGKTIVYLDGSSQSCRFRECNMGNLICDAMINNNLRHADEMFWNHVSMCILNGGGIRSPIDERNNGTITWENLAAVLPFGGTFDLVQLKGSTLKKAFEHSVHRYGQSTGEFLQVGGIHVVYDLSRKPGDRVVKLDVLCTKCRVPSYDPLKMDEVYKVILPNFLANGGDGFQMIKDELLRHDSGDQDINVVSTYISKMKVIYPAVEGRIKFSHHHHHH
Protocol: as §1

B1: MEDI9447 (antibody, human IgG1, lambda, V domains shown)
VH: EVQLLESGGGLVQPGGSLRLSCAASGFTFSSYAYSWVRQAPGKGLEWVSAISGSGGRTYYADSVKGRFTISRDNSKNTLYLQMNSLRAEDTAVYYCARLGYGRVDEWGRGTLVTVSS
VL: QSVLTQPPSASGTPGQRVTISCSGSLSNIGRNPVNWYQQLPGTAPKLLIYLDNLRLSGVPDRFSGSKSGTSASLAISGLQSEDEADYYCATWDDSHPGWTFGGGTKLTVLG
notes: Human IgG1-TM (L234F, L235E, P331S), lambda light chain; also called clone 10.3 antibody; 73combo3
Question: Which Kd (HDX_E2 CD73 chimera) does the source give for B1 here?
Answer: 2.83 nM

Question: And the koff (HDX_E2 CD73 chimera)?
Answer: 0.0162 s⁻¹

Question: What about the kon (HDX_E2 CD73 chimera) of the same binder?
Answer: 5.73e+06 M⁻¹ s⁻¹

Question: And the Kd (HDX_E1+E2 CD73 chimera)?
Answer: 4.43 nM

Question: And the koff (HDX_E1+E2 CD73 chimera)?
Answer: 0.0211 s⁻¹

Question: And the kon (HDX_E1+E2 CD73 chimera)?
Answer: 4.76e+06 M⁻¹ s⁻¹

Question: And the koff [1]?
Answer: 0.000245 s⁻¹

Question: What about the kon [1] of the same binder?
Answer: 9.11e+06 M⁻¹ s⁻¹
